Reference: publication PMC5785730, “Assays of D-Amino Acid Oxidase Activity” (Frontiers in Molecular Biosciences, 2018)

Experiments:
Conditions in all cases: FAD
purified protein [1] = substrate: N[C@H](CCC(=O)O)C(=O)O; assay: purified protein
purified protein [2] = substrate: C[C@@H](N)C(=O)O; assay: purified protein
[3] = substrate: NCCCC[C@@H](N)C(=O)O; assay: steady-state kinetics, oxygen consumption assay (Km); type: biochemical, Rhodotorula toruloides

B1: RgDAAO (D-amino acid oxidase from Rhodotorula gracilis) (Rhodotorula toruloides) (protein)
chain: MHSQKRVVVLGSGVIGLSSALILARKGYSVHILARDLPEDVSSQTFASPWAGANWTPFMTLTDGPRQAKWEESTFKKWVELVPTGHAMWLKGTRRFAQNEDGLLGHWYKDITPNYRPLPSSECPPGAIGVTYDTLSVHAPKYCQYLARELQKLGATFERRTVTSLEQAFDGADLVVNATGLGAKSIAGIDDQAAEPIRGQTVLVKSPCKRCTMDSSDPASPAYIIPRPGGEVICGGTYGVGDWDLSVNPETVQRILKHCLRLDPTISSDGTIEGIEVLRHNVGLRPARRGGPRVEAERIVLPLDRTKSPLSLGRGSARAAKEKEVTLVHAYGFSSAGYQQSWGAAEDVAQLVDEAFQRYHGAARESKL
notes: recombinant wild-type RgDAAO
- Km (purified protein [1]): 76.4 ± 6.4 mM
- Vmax (purified protein [1]): 1.7 µmol/min/mg
- Km (purified protein [2]): 1.3 ± 0.2 mM
- Vmax (purified protein [2]): 100 µmol/min/mg
- Km [3]: 14.6 ± 1.4 mM
- Vmax [3]: 16.4 µmol/min/mg
